The assay addresses human corticotropin-releasing factor 2α (CRF2 α receptor) (human), Q13324. In words: cell-based or functional assay.

Starred links: 1 amine or outer side, 2 acyl side, 3 side chain; linkers in the order of their positions; H or OH if unused. Non-standard residues stand in square brackets, D forms with d. Groups on a side chain read outwards from the residue. No end group written: not given here. *: point of attachment. C18 diacid = O=C(O)CCCCCCCCCCCCCCCCC(=O)*; γGlu = O=C(O)[C@H](CCC(=O)[*:2])N[*:1]; AEEA = NCCOCCOCC(=O)O; Aib = CC(C)(N)C(=O)O

human corticotropin-releasing factor 2α (CRF2 α receptor) (human), Q13324, sequence (Q13324 20-411): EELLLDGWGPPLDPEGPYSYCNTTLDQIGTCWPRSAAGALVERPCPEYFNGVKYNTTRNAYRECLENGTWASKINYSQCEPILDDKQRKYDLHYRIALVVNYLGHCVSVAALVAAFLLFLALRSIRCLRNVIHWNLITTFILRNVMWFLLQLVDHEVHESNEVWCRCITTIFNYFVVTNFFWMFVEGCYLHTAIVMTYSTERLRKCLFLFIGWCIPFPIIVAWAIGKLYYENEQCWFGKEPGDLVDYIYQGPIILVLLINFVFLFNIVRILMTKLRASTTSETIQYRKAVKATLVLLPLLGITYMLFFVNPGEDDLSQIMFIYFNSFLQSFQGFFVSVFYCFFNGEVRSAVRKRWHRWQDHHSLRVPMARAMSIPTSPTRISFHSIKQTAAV

B1: SEQ ID NO: 51 (peptide)
peptide: FTLSLDVPTKIK([AEEA-AEEA-γGlu-C18 diacid])QILLKQQKQKKERQQAEKNKQLLEQI-NH2
modifications: N-terminus assumed
SMILES: CC[C@H](C)[C@H](NC(=O)[C@H](CCC(N)=O)NC(=O)[C@H](CCC(=O)O)NC(=O)[C@H](CC(C)C)NC(=O)[C@H](CC(C)C)NC(=O)[C@H](CCC(N)=O)NC(=O)[C@H](CCCCN)NC(=O)[C@H](CC(N)=O)NC(=O)[C@H](CCCCN)NC(=O)[C@H](CCC(=O)O)NC(=O)[C@H](C)NC(=O)[C@H](CCC(N)=O)NC(=O)[C@H](CCC(N)=O)NC(=O)[C@H](CCCNC(=N)N)NC(=O)[C@H](CCC(=O)O)NC(=O)[C@H](CCCCN)NC(=O)[C@H](CCCCN)NC(=O)[C@H](CCC(N)=O)NC(=O)[C@H](CCCCN)NC(=O)[C@H](CCC(N)=O)NC(=O)[C@H](CCC(N)=O)NC(=O)[C@H](CCCCN)NC(=O)[C@H](CC(C)C)NC(=O)[C@H](CC(C)C)NC(=O)[C@@H](NC(=O)[C@H](CCC(N)=O)NC(=O)[C@H](CCCCNC(=O)COCCOCCNC(=O)COCCOCCNC(=O)CC[C@H](NC(=O)CCCCCCCCCCCCCCCCC(=O)O)C(=O)O)NC(=O)[C@@H](NC(=O)[C@H](CCCCN)NC(=O)[C@@H](NC(=O)[C@@H]1CCCN1C(=O)[C@@H](NC(=O)[C@H](CC(=O)O)NC(=O)[C@H](CC(C)C)NC(=O)[C@H](CO)NC(=O)[C@H](CC(C)C)NC(=O)[C@@H](NC(=O)[C@@H](N)Cc1ccccc1)[C@@H](C)O)C(C)C)[C@@H](C)O)[C@@H](C)CC)[C@@H](C)CC)C(N)=O
Take B1: the EC50 [nM], 0% HSA was determined as 0.32 nM and the EC50 [nM], 0.1% HSA came to 21.4 nM.

B2: SEQ ID NO: 49 (peptide)
peptide: IVLSLDVPIKLK([AEEA-AEEA-γGlu-C18 diacid])QILLEQERQR[Aib]ERQQAETNVRILERV-NH2
modifications: N-terminus assumed
SMILES: CC[C@H](C)[C@H](N)C(=O)N[C@H](C(=O)N[C@@H](CC(C)C)C(=O)N[C@@H](CO)C(=O)N[C@@H](CC(C)C)C(=O)N[C@@H](CC(=O)O)C(=O)N[C@H](C(=O)N1CCC[C@H]1C(=O)N[C@H](C(=O)N[C@@H](CCCCN)C(=O)N[C@@H](CC(C)C)C(=O)N[C@@H](CCCCNC(=O)COCCOCCNC(=O)COCCOCCNC(=O)CC[C@H](NC(=O)CCCCCCCCCCCCCCCCC(=O)O)C(=O)O)C(=O)N[C@@H](CCC(N)=O)C(=O)N[C@H](C(=O)N[C@@H](CC(C)C)C(=O)N[C@@H](CC(C)C)C(=O)N[C@@H](CCC(=O)O)C(=O)N[C@@H](CCC(N)=O)C(=O)N[C@@H](CCC(=O)O)C(=O)N[C@@H](CCCNC(=N)N)C(=O)N[C@@H](CCC(N)=O)C(=O)N[C@@H](CCCNC(=N)N)C(=O)NC(C)(C)C(=O)N[C@@H](CCC(=O)O)C(=O)N[C@@H](CCCNC(=N)N)C(=O)N[C@@H](CCC(N)=O)C(=O)N[C@@H](CCC(N)=O)C(=O)N[C@@H](C)C(=O)N[C@@H](CCC(=O)O)C(=O)N[C@H](C(=O)N[C@@H](CC(N)=O)C(=O)N[C@H](C(=O)N[C@@H](CCCNC(=N)N)C(=O)N[C@H](C(=O)N[C@@H](CC(C)C)C(=O)N[C@@H](CCC(=O)O)C(=O)N[C@@H](CCCNC(=N)N)C(=O)N[C@H](C(N)=O)C(C)C)[C@@H](C)CC)C(C)C)[C@@H](C)O)[C@@H](C)CC)[C@@H](C)CC)C(C)C)C(C)C
In turn, B2 displayed an EC50 [nM], 0% HSA of 12.7 nM.

B3: SEQ ID NO: 48 (peptide)
peptide: IVLSLDVPIKLK([AEEA-AEEA-γGlu-C18 diacid])QILLEQERQR[Aib]ERQQAETNVQILAQV-NH2
modifications: N-terminus assumed
SMILES: CC[C@H](C)[C@H](N)C(=O)N[C@H](C(=O)N[C@@H](CC(C)C)C(=O)N[C@@H](CO)C(=O)N[C@@H](CC(C)C)C(=O)N[C@@H](CC(=O)O)C(=O)N[C@H](C(=O)N1CCC[C@H]1C(=O)N[C@H](C(=O)N[C@@H](CCCCN)C(=O)N[C@@H](CC(C)C)C(=O)N[C@@H](CCCCNC(=O)COCCOCCNC(=O)COCCOCCNC(=O)CC[C@H](NC(=O)CCCCCCCCCCCCCCCCC(=O)O)C(=O)O)C(=O)N[C@@H](CCC(N)=O)C(=O)N[C@H](C(=O)N[C@@H](CC(C)C)C(=O)N[C@@H](CC(C)C)C(=O)N[C@@H](CCC(=O)O)C(=O)N[C@@H](CCC(N)=O)C(=O)N[C@@H](CCC(=O)O)C(=O)N[C@@H](CCCNC(=N)N)C(=O)N[C@@H](CCC(N)=O)C(=O)N[C@@H](CCCNC(=N)N)C(=O)NC(C)(C)C(=O)N[C@@H](CCC(=O)O)C(=O)N[C@@H](CCCNC(=N)N)C(=O)N[C@@H](CCC(N)=O)C(=O)N[C@@H](CCC(N)=O)C(=O)N[C@@H](C)C(=O)N[C@@H](CCC(=O)O)C(=O)N[C@H](C(=O)N[C@@H](CC(N)=O)C(=O)N[C@H](C(=O)N[C@@H](CCC(N)=O)C(=O)N[C@H](C(=O)N[C@@H](CC(C)C)C(=O)N[C@@H](C)C(=O)N[C@@H](CCC(N)=O)C(=O)N[C@H](C(N)=O)C(C)C)[C@@H](C)CC)C(C)C)[C@@H](C)O)[C@@H](C)CC)[C@@H](C)CC)C(C)C)C(C)C
B3 had an EC50 [nM], 0% HSA of 2.2 nM.

B4: SEQ ID NO: 50 (peptide)
peptide: IVLSLDVPTKLK([AEEA-AEEA-γGlu-C18 diacid])QILLKQERQR[Aib]ERQQAETNVRILERV-NH2
modifications: N-terminus assumed
SMILES: CC[C@H](C)[C@H](N)C(=O)N[C@H](C(=O)N[C@@H](CC(C)C)C(=O)N[C@@H](CO)C(=O)N[C@@H](CC(C)C)C(=O)N[C@@H](CC(=O)O)C(=O)N[C@H](C(=O)N1CCC[C@H]1C(=O)N[C@H](C(=O)N[C@@H](CCCCN)C(=O)N[C@@H](CC(C)C)C(=O)N[C@@H](CCCCNC(=O)COCCOCCNC(=O)COCCOCCNC(=O)CC[C@H](NC(=O)CCCCCCCCCCCCCCCCC(=O)O)C(=O)O)C(=O)N[C@@H](CCC(N)=O)C(=O)N[C@H](C(=O)N[C@@H](CC(C)C)C(=O)N[C@@H](CC(C)C)C(=O)N[C@@H](CCCCN)C(=O)N[C@@H](CCC(N)=O)C(=O)N[C@@H](CCC(=O)O)C(=O)N[C@@H](CCCNC(=N)N)C(=O)N[C@@H](CCC(N)=O)C(=O)N[C@@H](CCCNC(=N)N)C(=O)NC(C)(C)C(=O)N[C@@H](CCC(=O)O)C(=O)N[C@@H](CCCNC(=N)N)C(=O)N[C@@H](CCC(N)=O)C(=O)N[C@@H](CCC(N)=O)C(=O)N[C@@H](C)C(=O)N[C@@H](CCC(=O)O)C(=O)N[C@H](C(=O)N[C@@H](CC(N)=O)C(=O)N[C@H](C(=O)N[C@@H](CCCNC(=N)N)C(=O)N[C@H](C(=O)N[C@@H](CC(C)C)C(=O)N[C@@H](CCC(=O)O)C(=O)N[C@@H](CCCNC(=N)N)C(=O)N[C@H](C(N)=O)C(C)C)[C@@H](C)CC)C(C)C)[C@@H](C)O)[C@@H](C)CC)[C@@H](C)O)C(C)C)C(C)C
The molecule B4 returned an EC50 [nM], 0% HSA of 17.2 nM.
